Laboratory results taken from doi:10.1101/2021.10.05.463238 (bioRxiv, 2021).

What was measured:
[1] = biological target: taxol-stabilized microtubules of unlabeled porcine brain tubulin (porcine) (UniProt P02550); test: co-sedimentation
native gel or EMSA = biological target: the molecule itself; test: native gel or EMSA

Binder | Kd [1] | binding result (native gel or EMSA)
SPR2 (38-570)-GFP (domain or fragment, Arabidopsis thaliana, UniProt Q9T041 38-570, looked up) AMVELKQKILTSISKLADRDTYQIAVEDLEKTIQSLTPETLPMFLNCLYDSCSDPKPAVKKECLHLLSYVCSLHCDSTAAHLTKIIAQIVKRLKDSDSGVRDACRDTIGALSGIYLKGKEEGTNTGSASLAVGLFVKPLFEAMGEQNKVVQSGASMCMARMVESAASPPVTSFQKLCPRICKLLSNSSFLAKASLLPVVSSLSQVGAIAPQSLESLLESIHDCLGSTDWVTRKAAAETLTALASHSSGLIKEKTDSTITVLETCRFDKIKPVRESVTEALQLWKKISGKYVDGASDDSKLSASEQLGSEKNGEKRSNLADLMKKEASDGSTLSPDSASKGKGCFPEKAVGLLKKKAPVLSDKDFNPEFFQRLERRQSVEVVVPRRCKNNDEEESGLDDLNAMGSSNRLKNTQADDKQVKGRFDGNGSQARTSGDDKAGVVNGKETPGHHAPVSNTDNQSEGSFTSNRGNWSAIQRQLLQLERQQTNLMNMLQEFIGGSHDSMVTLEGRVRGLERIVEDMARDLSISSGRRANL | – | binds
full-length SPR2-GFP protein (natural protein, Arabidopsis thaliana, UniProt Q9T041 1-864, looked up) MSTPTTSGSAAKPTRPARSSSLATRSCSNSGSLTSFQAMVELKQKILTSISKLADRDTYQIAVEDLEKTIQSLTPETLPMFLNCLYDSCSDPKPAVKKECLHLLSYVCSLHCDSTAAHLTKIIAQIVKRLKDSDSGVRDACRDTIGALSGIYLKGKEEGTNTGSASLAVGLFVKPLFEAMGEQNKVVQSGASMCMARMVESAASPPVTSFQKLCPRICKLLSNSSFLAKASLLPVVSSLSQVGAIAPQSLESLLESIHDCLGSTDWVTRKAAAETLTALASHSSGLIKEKTDSTITVLETCRFDKIKPVRESVTEALQLWKKISGKYVDGASDDSKLSASEQLGSEKNGEKRSNLADLMKKEASDGSTLSPDSASKGKGCFPEKAVGLLKKKAPVLSDKDFNPEFFQRLERRQSVEVVVPRRCKNNDEEESGLDDLNAMGSSNRLKNTQADDKQVKGRFDGNGSQARTSGDDKAGVVNGKETPGHHAPVSNTDNQSEGSFTSNRGNWSAIQRQLLQLERQQTNLMNMLQEFIGGSHDSMVTLEGRVRGLERIVEDMARDLSISSGRRANLTAGFGKYNSFANYPTGKYNGRAPGERGSQTDGAMRGRMWNSDMADDWFIPPHAASRNGQAGPRRSPRSEQYENEHMGNGRRGWDNKASGTIRFGEGPSARSVWQASKDEATLEAIRVAGEDGAVPRPTRVAVAPEAEAMGDDDNEGQERDPIWVSWSNAMHSLRVGDIDAAYAEVLCAGDQHLVIKLMDKTGPSLDQMSNEIANEALNFISQFLLDHSLYDICLSWSQQLLELVLQDGADTFGVPMELKTEILYNLQDACSTMDPPEDWEGPAPEQLVVQLASVWEIDLQQFDK | – | binds

Second part, led by results:

Kd [1] | Binder | binding result (native gel or EMSA)
17.4 µM | SPR2(1-500)-GFP (domain or fragment) MSTPTTSGSAAKPTRPARSSSLATRSCSNSGSLTSFQAMVELKQKILTSISKLADRDTYQIAVEDLEKTIQSLTPETLPMFLNCLYDSCSDPKPAVKKECLHLLSYVCSLHCDSTAAHLTKIIAQIVKRLKDSDSGVRDACRDTIGALSGIYLKGKEEGTNTGSASLAVGLFVKPLFEAMGEQNKVVQSGASMCMARMVESAASPPVTSFQKLCPRICKLLSNSSFLAKASLLPVVSSLSQVGAIAPQSLESLLESIHDCLGSTDWVTRKAAAETLTALASHSSGLIKEKTDSTITVLETCRFDKIKPVRESVTEALQLWKKISGKYVDGASDDSKLSASEQLGSEKNGEKRSNLADLMKKEASDGSTLSPDSASKGKGCFPEKAVGLLKKKAPVLSDKDFNPEFFQRLERRQSVEVVVPRRCKNNDEEESGLDDLNAMGSSNRLKNTQADDKQVKGRFDGNGSQARTSGDDKAGVVNGKETPGHHAPVSNTDNQSEGSF | –
1.3 µM | SPR2(1-570)-GFP (domain or fragment, Arabidopsis thaliana, UniProt Q9T041 1-570, looked up) MSTPTTSGSAAKPTRPARSSSLATRSCSNSGSLTSFQAMVELKQKILTSISKLADRDTYQIAVEDLEKTIQSLTPETLPMFLNCLYDSCSDPKPAVKKECLHLLSYVCSLHCDSTAAHLTKIIAQIVKRLKDSDSGVRDACRDTIGALSGIYLKGKEEGTNTGSASLAVGLFVKPLFEAMGEQNKVVQSGASMCMARMVESAASPPVTSFQKLCPRICKLLSNSSFLAKASLLPVVSSLSQVGAIAPQSLESLLESIHDCLGSTDWVTRKAAAETLTALASHSSGLIKEKTDSTITVLETCRFDKIKPVRESVTEALQLWKKISGKYVDGASDDSKLSASEQLGSEKNGEKRSNLADLMKKEASDGSTLSPDSASKGKGCFPEKAVGLLKKKAPVLSDKDFNPEFFQRLERRQSVEVVVPRRCKNNDEEESGLDDLNAMGSSNRLKNTQADDKQVKGRFDGNGSQARTSGDDKAGVVNGKETPGHHAPVSNTDNQSEGSFTSNRGNWSAIQRQLLQLERQQTNLMNMLQEFIGGSHDSMVTLEGRVRGLERIVEDMARDLSISSGRRANL | binds
